In publication PMC7608827 (Science Advances, 2020):
Read-outs that look alike come from different tables or passages of the source.

B1: CaDoc0917, dockerin module of Clostridium acetobutylicum (domain or fragment, UniProt Q97KK2 477-537, looked up)
chain: NTILGDLNDDGVVNGRDIVMMRQYLAGKTVSGIDKNALDINGDGAVNGRDLMELIKKVSNN
B2: CaCohA2, cohesin module of Clostridium acetobutylicum (domain or fragment, UniProt Q977Y4 611-759, looked up)
chain: VKNETVKLSVGTVSGNPGDTVKVPVTISQVSTPVGLICMDISYDASKFTVKDVLPNTDLVKDTDNYSFIVNTSTPGKISITFTDPTLANYPISVDGILAYLDFIINSNATAGDSALTVDPATLIVADENDKDIKDAASNGKITVTGSAP

Experiments:
Assay in all cases: ITC
[1] = molecular target: CaDoc0917(R16D) (Clostridium acetobutylicum)
[2] = molecular target: CaDoc0917(R49D) (Clostridium acetobutylicum)
[3] = molecular target: CaDoc0917(R49D) (Clostridium acetobutylicum); remark: listed apart in the source
[4] = molecular target: CaDoc0917(R16D) (Clostridium acetobutylicum); remark: listed apart in the source
[5] = molecular target: B2
[6] = molecular target: B2; remark: listed apart in the source
[7] = molecular target: B2; remark: listed apart in the source
[8] = molecular target: B1
[9] = molecular target: CaDoc0917(R16D/I55R) (Clostridium acetobutylicum)
[10] = molecular target: CaDoc0917(R49D/V19M) (Clostridium acetobutylicum)
[11] = molecular target: CaDoc0917(R49D/R22I) (Clostridium acetobutylicum)
[12] = molecular target: CaDoc0917(R16DE53Q) (Clostridium acetobutylicum)
[13] = molecular target: CaDoc0917(R16D/M52V) (Clostridium acetobutylicum)
[14] = molecular target: CaDoc0917(R16D/I55R) (Clostridium acetobutylicum); remark: listed apart in the source
[15] = molecular target: CaDoc0917(R49D/V19M) (Clostridium acetobutylicum); remark: listed apart in the source
[16] = molecular target: CaDoc0917(R49D/R22I) (Clostridium acetobutylicum); remark: listed apart in the source
[17] = molecular target: CaDoc0917(R16D/M52V) (Clostridium acetobutylicum); remark: listed apart in the source
[18] = molecular target: B1; remark: listed apart in the source
[19] = molecular target: B1; remark: listed apart in the source

A Ka [1] of 320000 M⁻¹, a Ka [2] of 4.24e+06 M⁻¹ and a Ka [3] of 2.1e+07 M⁻¹ were found for CaCohA2 D130N (domain or fragment) in this work.

A Ka [1] of 120000 M⁻¹, a Ka [2] of 1.57e+06 M⁻¹ and a Ka [4] of 2.2e+07 M⁻¹ were found for CaCohA2 E128Q (domain or fragment) in this work. The Ka [3] was 2.1e+07 M⁻¹.

A Ka [1] of 460000 M⁻¹, a Ka [2] of 2.32e+06 M⁻¹ and a Ka [4] of 3.6e+06 M⁻¹ were found for “CaCohA2 E128Q/D130N (domain or fragment)” in this work. The Ka [3] was 1.1e+07 M⁻¹.

A Ka [5] of 1.8e+06 M⁻¹, a Ka [6] of 2.4e+07 M⁻¹ and a Ka [7] of 1.48e+08 M⁻¹ were found for B1 in this work.

In the case of B2, the dH [8] is reported as -9.54 ± 0.13 kcal/mol, the “stoichiometry N” value [8] is reported as 1.09 ± 0.011 and the Ka [1] is reported as 170000 M⁻¹. For the same molecule, the Ka [9] was 1.04e+06 M⁻¹, the Ka [10] was 1.98e+06 M⁻¹ and the Ka [11] was 180000 M⁻¹. For the same molecule, the Ka [12] was 1.93e+06 M⁻¹, the Ka [13] was 290000 M⁻¹ and the Ka [2] was 1.39e+06 M⁻¹. For the same molecule, the Ka [4] was 1.03e+08 M⁻¹, the Ka [14] was 1.32e+08 M⁻¹ and the Ka [15] was 5.15e+08 M⁻¹. It also gave a Ka [16] of 2.1e+07 M⁻¹, a Ka [17] of 2.9e+07 M⁻¹ and a Ka [3] of 4.3e+07 M⁻¹. For the same molecule, the dH [18] was -4.67 ± 0.03 kcal/mol, the “stoichiometry N” value [18] was 0.862 ± 0.003 and the dH [19] was -7.37 ± 0.04 kcal/mol. For the same molecule, the “stoichiometry N” value [19] was 0.95 ± 0.002.
